Data published in patent publication US8741844B2, “Use of mutated antithrombins for treating or preventing coagulation disorders” (Universite Paris-Sud XI, priority 2007, dated 2014).
Where a chain is given by its changes, count along the chain named. Names may count otherwise.

B1: AT-N135Q-ΔR393-S394: human antithrombin with deletion of positions 393 and 394 and substitution at 135 by Glutamine (protein, listed as Homo sapiens)
chain: HGSPVDICTAKPRDIPMNPMCIYRSPEKKATEDEGSEQKIPEATNRRVWELSKANSRFATTFYQHLADSKNDNDNIFLSPLSISTAFAMTKLGACNDTLQQLMEVFKFDTISEKTSDQIHFFFAKLNCRLYRKAQKSSKLVSANRLFGDKSLTFNETYQDISELVYGAKLQPLDFKENAEQSRAAINKWVSNKTEGRITDVIPSEAINELTVLVLVNTIYFKGLWKSKFSPENTRKELFYKADGESCSASMMYQEGKFRYRRVAEGTQVLELPFKGDDITMVLILPKPEKSLAKVEKELTPEVLQEWLDELEEMMLVVHMPRFRIEDGFSLKEQLQDMGLVDLFSPEKSKLPGIVAEGRDDLYVSDAFHKAFLEVNEEGSEAAASTAVVIAGLNPNRVTFKANRPFLVFIREVPLNTIIFMGRVANPCVK
B2: AT-N135Q-Pro394: human antithrombin with Proline inserted between 393 and 394 and substitution at 135 by Glutamine (protein, listed as Homo sapiens)
chain: HGSPVDICTAKPRDIPMNPMCIYRSPEKKATEDEGSEQKIPEATNRRVWELSKANSRFATTFYQHLADSKNDNDNIFLSPLSISTAFAMTKLGACNDTLQQLMEVFKFDTISEKTSDQIHFFFAKLNCRLYRKAQKSSKLVSANRLFGDKSLTFNETYQDISELVYGAKLQPLDFKENAEQSRAAINKWVSNKTEGRITDVIPSEAINELTVLVLVNTIYFKGLWKSKFSPENTRKELFYKADGESCSASMMYQEGKFRYRRVAEGTQVLELPFKGDDITMVLILPKPEKSLAKVEKELTPEVLQEWLDELEEMMLVVHMPRFRIEDGFSLKEQLQDMGLVDLFSPEKSKLPGIVAEGRDDLYVSDAFHKAFLEVNEEGSEAAASTAVVIAGRPSLNPNRVTFKANRPFLVFIREVPLNTIIFMGRVANPCVK
B3: AT-N135Q-ΔR393: human antithrombin with deletion of position 393 and substitution at 135 by Glutamine (protein, listed as Homo sapiens)
chain: HGSPVDICTAKPRDIPMNPMCIYRSPEKKATEDEGSEQKIPEATNRRVWELSKANSRFATTFYQHLADSKNDNDNIFLSPLSISTAFAMTKLGACNDTLQQLMEVFKFDTISEKTSDQIHFFFAKLNCRLYRKAQKSSKLVSANRLFGDKSLTFNETYQDISELVYGAKLQPLDFKENAEQSRAAINKWVSNKTEGRITDVIPSEAINELTVLVLVNTIYFKGLWKSKFSPENTRKELFYKADGESCSASMMYQEGKFRYRRVAEGTQVLELPFKGDDITMVLILPKPEKSLAKVEKELTPEVLQEWLDELEEMMLVVHMPRFRIEDGFSLKEQLQDMGLVDLFSPEKSKLPGIVAEGRDDLYVSDAFHKAFLEVNEEGSEAAASTAVVIAGSLNPNRVTFKANRPFLVFIREVPLNTIIFMGRVANPCVK
B4: AT-N135Q-ΔS394: human antithrombin with deletion of position 394 and substitution at 135 by Glutamine (protein, listed as Homo sapiens)
chain: B3 chain with S393R

Experiments:
factor Xa = molecular target: T1, factor Xa (Homo sapiens, UniProt P00742); test: Kinetic assay of factor Xa inhibition by antithrombins in a purified system (chromogenic substrate, continuous or discontinuous); assay type: biochemical; details: for factor Xa inhibition in continuous method: saturating pentasaccharide concentration; for anticoagulant / anti-factor Xa activity / inhibition rate constant (kon) for factor Xa: discontinuous method; for factor Xa inhibitory activity: with or without pentasaccharide, compared with plasma / wild type antithrombin
T1 construct: purchased Kordia
Method: Briefly, factor Xa is incubated with an excess of tested antithrombins (corresponding to plasma antithrombin, or wild type antithrombin or mutated antithrombins and varying in each assay realized) in the presence or absence of pentasaccharide (Fondaparinux sodique, Arixtra®, GlaxoSmithKline) and the factor Xa residual activity is measured as a function of time. The pentasaccharide is added in excess in the reaction media so that every tested antithrombin is bound to the pentasaccharide. In the absence of pentasaccharide, polybrene is added in order to neutralize any sulfated glycosaminoglycan that may be present in the reaction media. The residual factor Xa activity is measured as the increase in absorbance at 405 nm resulting from cleavage of the chromogenic substrate (S2765 or S2222, Chromogenix) using a microplate reader (Dynatech MR 5000). The analysis of the data is performed using the GraphPad Prism version 3 software. Absorbance recording is continuous or discontinuous according to the expected inhibition rate constant (kon).
The inhibition rate constant (kon) is the second order rate constant given in M^−1·s^−1 which define the velocity of stable complex formation between protease and antithrombin (higher is the kon value, faster will the complex be established).
When the expected kon is lower than 10^4 M^−1·s^−1 the discontinuous method is used. Factor Xa (0.2 to 1 μM, or 0.1 to 1 μM) is incubated with tested antithrombins (0.2 to 10 μM, or 1 to 10 μM) in the presence of pentasaccharide (10 to 100 μM) or polybrene (100 μg/ml) in a final volume of 10 μl for 10 seconds to 5 hours, or 10 seconds to 24 hours. At the end of this incubation period, 190 μl of kinetic buffer containing 200 μM substrate is added and absorbance at 405 nm is recorded.
The kinetic rate constant (k) is estimated by fitting the substrate hydrolysis initial rate curve to equation (1) using non-linear regression with v0 and v∞ being the substrate hydrolysis rate at time to or too respectively. […] (1)
The inhibition rate constant (kon) is calculated from the rate constant (k) using equation (2) where AT is the tested antithrombin concentration. k=AT·kon (2)
When the expected kon is higher than 10^4 M^−1·s^−1′ the continuous method is used. The tested antithrombin (0.01 to 1 μM, or 0.1 to 1 μM) is incubated with the substrate (200 μM) in the presence of pentasaccharide or polybrene in a final volume of 100 μL, or 190 μl, and the reaction is started by addition of 100 μL, or 10 μL, of factor Xa (2 nM or 10 nM). The rate constant (k) is obtained by fitting the substrate hydrolysis curve to equation (3) or (3′) using non-linear regression analysis where A0 is the absorbance at t0, and vi and vs are respectively the initial and final rates of substrate hydrolysis in the absence of tested antithrombin. A405=A0+vi·(1−exp(−k·t))/k. (3) Equation (3′) is also used, particularly in presence of plasma. A405=A0+vs*t+(vi−vs)*(1−exp(−k·t))/k. (3′)
The inhibition rate constant (kon) is calculated from the kinetic constant (k) using equation (4) that takes into account the competitive effect of the substrate, with S being the initial substrate concentration, Km, the Michaelis constant for factor Xa-substrate interaction, AT the tested antithrombin concentration. k=(kon/(1+S/Km))·[AT] (4)
Mutated antithrombins and wild type AT inhibitory activity are measured in the same conditions and compared with plasma AT inhibitory activity.

[1] = test system: pentasaccharide bound murine antithrombin (plasma anti-Xa activity); test: Anti factor Xa assay in mouse plasma supplemented with Fondaparinux; assay type: biochemical
Method: During the animal experimentation (see detailed protocol below), human mutated antithrombins compete with murine antithrombin for their binding to the pentasaccharide. Thus, preliminary in vitro assays are performed to determine the human mutated antithrombin concentration necessary to compete with the murine antithrombin present in mouse plasma supplemented with Fondaparinux.
These experiments are performed as described in section II-b, using mouse plasma instead of human plasma.

[2] = test system: plasma anti FXa activity in mice treated with pentasaccharide; test: Murine model: mutated antithrombins as antidotes of fondaparinux, plasma anti FXa activity; assay type: in vivo, mouse; details: injection of mutated antithrombin after fondaparinux
Method: The efficiency of the mutated antithrombins AT-R393H(SEQ ID NO: 4), AT-Pro394 (SEQ ID NO: 6), AT-ΔR393-S394 (SEQ ID NO: 18), AT-ΔR393 (SEQ ID NO: 8), AT-ΔS394 (SEQ ID NO: 10), AT-N135Q-R393H(SEQ ID NO: 14), AT-N135Q-Pro394 (SEQ ID NO: 16), AT-N135Q-ΔR393-S394 (SEQ ID NO: 24), AT-N135Q-ΔR393 (SEQ ID NO: 20), AT-N135Q-A5394 (SEQ ID NO: 22) as antidotes is evaluated in a murine model.
The different drugs to be tested (fondaparinux, low molecular weight heparin, full length heparin and the mutated antithrombins) are administrated by intra-venous injection in the caudal vein to avoid the variability encountered when administration is performed subcutaneously. However, Heparin derivatives (fondaparinux, low molecular weight heparin and full length heparin) could also be administrated subcutaneously.
The blood is collected by punction in cave vein into tubes containing 0.105 mol/L trisodium citrate (1:10). Platelet-poor plasma is obtained by centrifugation at 2300 g for 10 minutes at 12° C. and stored at −80° C. until use.
The following elements are determined: • the doses of fondaparinux inducing an overdose in mice, • the mutated antithrombins time course, and in particular the time required to observe a maximal biological effect, • the minimal doses of mutated antithrombins necessary to neutralize fondaparinux.
For each of these experiments, 4 groups of 5 mice each are used: • In the first group mice receive fondaparinux vehicle and then antidote (mutated antithrombin) vehicle. • In the second group, mice receive fondaparinux and then antidote vehicle • In the third group, mice receive fondaparinux vehicle and then antidote • In the last group, mice receive fondaparinux and then antidote
Anti FXa activity measurements is performed as previously described using a Stachrom Heparin® kit on a STA (Stago, France) or a Rotachrom Heparin® kit with procedure adapted for measurement in microplate reader (Dynatech MR 5000). A calibration curve with pentasaccharide is performed, allowing the expression of the results in nmol/ml (or in mg/L) of plasma.
Thus, the antidote (mutated antithrombins) is administered intravenously, 5 min after the intra-venous injection of the fondaparinux, and 5, 15 or 30 min after the subcutaneous injection of the fondaparinux.
The mutated antithrombin time course is studied by measuring the plasma anti-Xa activity 5 min, 10 min, 20 min and 40 min after the antidote administration.
Once the time of action determined, a dose response curve is performed in vivo to determine the dose of antidote necessary to obtain a decrease in Fondaparinux plasma concentration within the therapeutic range around 1.2 nmol/ml (or 2 mg/L), or around 0.7 nmol/ml (or 1.2 mg/L).

[3] = in the presence of pentasaccharide

T1 sequence (P00742 235-488 limits assumed): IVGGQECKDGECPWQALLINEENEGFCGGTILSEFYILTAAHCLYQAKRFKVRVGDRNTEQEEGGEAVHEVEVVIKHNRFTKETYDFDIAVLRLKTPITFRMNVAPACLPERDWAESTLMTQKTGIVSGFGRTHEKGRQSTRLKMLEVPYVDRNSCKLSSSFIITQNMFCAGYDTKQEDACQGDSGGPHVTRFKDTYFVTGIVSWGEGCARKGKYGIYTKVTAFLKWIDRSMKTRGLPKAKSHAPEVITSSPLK
T1 sequence (P00742 41-179 partner limits assumed): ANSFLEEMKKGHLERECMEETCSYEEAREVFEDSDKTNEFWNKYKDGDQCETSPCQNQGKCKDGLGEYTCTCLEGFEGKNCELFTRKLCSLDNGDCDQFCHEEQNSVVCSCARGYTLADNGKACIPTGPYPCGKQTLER

Row | Molecule | factor Xa inhibition in continuous method (factor Xa) | anticoagulant / anti-factor Xa activity (factor Xa; [3]) | inhibition rate constant (kon) for factor Xa (factor Xa; [3]) | factor Xa inhibitory activity (factor Xa) | effect on anti-Xa activity of pentasaccharide contained in mouse plasma [1] | plasma anti FXa activity in mice treated with pentasaccharide [2] | kon, times lower than plasma AT (factor Xa; [3])
1 | AT-N135Q-R393H: human antithrombin with substitution at 393 by Histidine and at 135 by Glutamine | slow factor Xa inhibitors | largely reduced | 4415 M⁻¹ s⁻¹ | negligible | significant decrease | significant decrease | –
2 | AT-R393H: human antithrombin (SEQ ID NO:2) with substitution of the amino acid at position 393 by Histidine | – | – | – | negligible | significant decrease | significant decrease | –
3 | B1 | – | – | – | negligible | significant decrease | significant decrease | –
4 | B2 | slow factor Xa inhibitors | almost devoid of anti-factor Xa activity | 33 M⁻¹ s⁻¹ | negligible | significant decrease | significant decrease | at least 7600 times
5 | B3 | – | – | – | negligible | significant decrease | significant decrease | –
6 | B4 | – | – | – | negligible | significant decrease | significant decrease | –
